Measured values: US20210324054A1

Biological target: DN-IV quality control recombinant protein (produced by the company) (dengue virus)
Assay: BLI, antibody on AMC sensor

| Binder | Kd | koff | kon |
| --- | --- | --- | --- |
| Mutation 1-5 (antibody, V domains shown) VH: EVQLQQPGPELVKPGASVKMSCKASGYTFTSYVIHWVRQKPGQGLEWIGYMNPYNDGIKYNEKFIGKAILTSDKSSSTAYMQLSSLTSEDSAVYYCTREGLFYVFDYWGQGTSVTVSS VL: QIVLTQSPAIMSASPGEKVTMTCSATSSVSYMHWYQQKSGTSPKRWIYDSSKLASGVPVRFSGSGSGTSYSLTISSMEAEDAATYFCQQWRSDLPTFGAGTKLELKR | 0.508 nM | 0.000213 s⁻¹ | 419000 M⁻¹ s⁻¹ |
| Mutation 1-6 (antibody, V domains shown) VH: EVQLQQPGPELVKPGASVKMSCKASGYTFTSTVIHWVRQKPGQGLEWIGYMNPYNDGIKYNEKFIGKAILTSDKSSSTAYMQLSSLTSEDSAVYYCTKEGLFYVMDYWGQGTSVTVSS VL: QIVLTQSPAIMSASPGEKVTMTCSATSSISYMHWYQQKSGTSPKRWIYDTSKLASGVPVRFSGSGSGTSYSLTISSMEAEDAATYFCQYWRSDLPTFGAGTKLELKR | 0.499 nM | 0.000249 s⁻¹ | 499000 M⁻¹ s⁻¹ |
| Mutation 1-7 (antibody, V domains shown) VH: EVQLQQPGPELVKPGASVKMSCKASGYTFTSSVIHWVRQKPGQGLEWIGYMNPYNDGLKYNEKFIGKAILTSDKSSSTAYMQLSSLTSEDSAVYYCTKEGLFYVFDYWGQGTSVTVSS VL: QIVLTQSPAIMSASPGEKVTMTCSATSSLSYMHWYQQKSGTSPKRWIYDSSKLASGVPVRFSGSGSGTSYSLTISSMEAEDAATYFCQWWRSDLPTFGAGTKLELKR | 0.652 nM | 0.00024 s⁻¹ | 368000 M⁻¹ s⁻¹ |
| Mutation 1-8 (antibody, V domains shown) VH: EVQLQQPGPELVKPGASVKMSCKASGYTFTSYVIHWVRQKPGQGLEWIGYMNPYNDGIKYNEKFIGKAILTSDKSSSTAYMQLSSLTSEDSAVYYCTREGLFYVMDYWGQGTSVTVSS VL: QIVLTQSPAIMSASPGEKVTMTCSATSSVSYMHWYQQKSGTSPKRWIYDTSKLASGVPVRFSGSGSGTSYSLTISSMEAEDAATYFCQQWRSDLPTFGAGTKLELKR | 4.08 nM | 0.000172 s⁻¹ | 42200 M⁻¹ s⁻¹ |
| Mutation 1-9 (antibody, V domains shown) VH: EVQLQQPGPELVKPGASVKMSCKASGYTFTSTVIHWVRQKPGQGLEWIGYMNPYNDGLKYNEKFIGKAILTSDKSSSTAYMQLSSLTSEDSAVYYCTREGLFYVFDYWGQGTSVTVSS VL: QIVLTQSPAIMSASPGEKVTMTCSATSSISYMHWYQQKSGTSPKRWIYDSSKLASGVPVRFSGSGSGTSYSLTISSMEAEDAATYFCQYWRSDLPTFGAGTKLELKR | 0.66 nM | 0.000284 s⁻¹ | 430000 M⁻¹ s⁻¹ |
| Mutation 1-10 (antibody, V domains shown) VH: EVQLQQPGPELVKPGASVKMSCKASGYTFTSSVIHWVRQKPGQGLEWIGYMNPYNDGIKYNEKFIGKAILTSDKSSSTAYMQLSSLTSEDSAVYYCTKEGLFYVMDYWGQGTSVTVSS VL: QIVLTQSPAIMSASPGEKVTMTCSATSSLSYMHWYQQKSGTSPKRWIYDTSKLASGVPVRFSGSGSGTSYSLTISSMEAEDAATYFCQWWRSDLPTFGAGTKLELKR | 2.65 nM | 0.000129 s⁻¹ | 48700 M⁻¹ s⁻¹ |
| Mutation 1-11 (antibody, V domains shown) VH: EVQLQQPGPELVKPGASVKMSCKASGYTFTSYVIHWVRQKPGQGLEWIGYMNPYNDGLKYNEKFIGKAILTSDKSSSTAYMQLSSLTSEDSAVYYCTKEGLFYVFDYWGQGTSVTVSS VL: QIVLTQSPAIMSASPGEKVTMTCSATSSVSYMHWYQQKSGTSPKRWIYDSSKLASGVPVRFSGSGSGTSYSLTISSMEAEDAATYFCQQWRSDLPTFGAGTKLELKR | 0.725 nM | 0.0003 s⁻¹ | 414000 M⁻¹ s⁻¹ |
| Mutation 1-12 (antibody, V domains shown) VH: EVQLQQPGPELVKPGASVKMSCKASGYTFTSTVIHWVRQKPGQGLEWIGYMNPYNDGIKYNEKFIGKAILTSDKSSSTAYMQLSSLTSEDSAVYYCTREGLFYVMDYWGQGTSVTVSS VL: QIVLTQSPAIMSASPGEKVTMTCSATSSISYMHWYQQKSGTSPKRWIYDTSKLASGVPVRFSGSGSGTSYSLTISSMEAEDAATYFCQYWRSDLPTFGAGTKLELKR | 2.86 nM | 0.000122 s⁻¹ | 42600 M⁻¹ s⁻¹ |
